Assay results published in US20170096479A1 (published 2017).
Substitutions are numbered along the chain they refer to. Names may count otherwise. Values belong to the binder of their own block, whether it stands above or below them.

What was measured:
human VEGF (hVEGF) [1] = biological target: T1, human VEGF (hVEGF) (human, UniProt P15692 181-395); test: cell-based or functional assay
T1 sequence: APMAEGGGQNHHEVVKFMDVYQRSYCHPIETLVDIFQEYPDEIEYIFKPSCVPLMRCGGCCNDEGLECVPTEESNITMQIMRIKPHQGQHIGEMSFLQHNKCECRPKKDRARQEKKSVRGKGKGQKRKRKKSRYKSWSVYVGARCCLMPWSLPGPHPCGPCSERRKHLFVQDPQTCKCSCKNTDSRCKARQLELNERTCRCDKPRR

human VEGF (hVEGF) [2] = biological target: T1, human VEGF (hVEGF); test: SPR BIACORE kinetics
human VEGF165 = human VEGF165 (human, UniProt P15692-4 27-191); test: cell-based or functional assay
human VEGF (hVEGF) [3] = biological target: T1, human VEGF (hVEGF); test: SPR BIACORE T200, single cycle
Method: To confirm the results obtained from the deep mutagenesis scanning, selected mutations were expressed and purified, and their affinity towards VEGF was measured using BIACORE® surface plasmon resonance (SPR) and their thermostability (as assessed by melting temperature, Tₘ) was measured using differential scanning fluorimetry (DSF).
To determine the binding affinity of selected Fab variants, SPR measurement with a BIACORE® T200 instrument was used. Briefly, series S sensor chip CM5 was activated with 1-ethyl-3-(3-dimethylaminopropyl) carbodiimide (EDC) and N-hydroxysuccinimide (NHS) reagents according to the supplier's instructions, and human VEGF (hVEGF) was coupled to achieve 50-80 response units (RU), then following by blocking un-reacted groups with 1 M ethanolamine.
Three-fold serial dilutions of Fab in HBS-P buffer (0.01 M HEPES pH 7.4, 0.15 M NaCl, 0.005% surfactant P20) from low (0.02 nM) to high (50 nM) were injected (flow rate: 30 μl/min). The binding responses on hVEGF were corrected by subtracting of RU from a blank flow cell. The sensorgram was recorded and subject to reference and buffer subtraction before evaluating by BIACORE® T200 Evaluation Software (version 2.0). Association rates (kₒₙ) and dissociation rates (koff) were calculated using a simple one-to-one Langmuir binding model. The equilibrium dissociation constant (Kd) was calculated as the ratio koff/kₒₙ.

B1: G6.31 AAEE (LC-N94A.LC-F83A.HC-A40E.HC-T57E) (Fab, V domains shown)
VH: EVQLVESGGGLVQPGGSLRLSCAASGFTISDYWIHWVRQEPGKGLEWVAGITPAGGYEYYADSVKGRFTISADTSKNTAYLQMNSLRAEDTAVYYCARFVFFLPYAMDYWGQGTLVTVSS
VL: DIQMTQSPSSLSASVGDRVTITCRASQDVSTAVAWYQQKPGKAPKLLIYSASFLYSGVPSRFSGSGSGTDFTLTISSLQPEDAATYYCQQGYGAPFTFGQGTKVEIK
IC50 relative to G6.31, VEGF-induced HUVEC migration assay (human VEGF (hVEGF) [1]): 0.9 relative to G6.31

B5: G6.31 LC-N94A.LC-F83A (Fab, V domains shown)
VH: B1 VH with E40A, E58T
VL: B1 VL
IC50 relative to G6.31, VEGF-induced HUVEC migration assay (human VEGF (hVEGF) [1]): 5.1 relative to G6.31

B6: G6.31 LC-N94A (Fab, V domains shown)
VH: B1 VH with E40A, E58T
VL: B1 VL with A83F
IC50 relative to G6.31, VEGF-induced HUVEC migration assay (human VEGF (hVEGF) [1]): 5.2 relative to G6.31

B7: G6.31 HC-T57E (Fab, name in Kabat numbering, V domains shown)
VH: B1 VH with E40A
VL: B1 VL with A83F, A94N
notes: Fab
kon (human VEGF (hVEGF) [3]): 1.93e+08 M⁻¹ s⁻¹

Second part, the binder after the results:

Kd (human VEGF (hVEGF) [2]): 0.0949 nM
B2: R19HCLC2 (Fab, V domains shown)
VH: B1 VH with V2E, S7E, G16E, T28E, K43E, K65E, K76E, S85E, T114E
VL: B1 VL with R18E, K42E, S76E
notes: Fab

qAC50 (equivalent to IC50), pKDR receptor activation assay on KDR-CHO cells (human VEGF165): 0.135 nM
B3: HA100K-G6.31 AARR (Fab, V domains shown)
VH: B1 VH with E40A, E58T, Y59R, N84R
VL: B1 VL
modifications: free hinge cysteine of the Fab-C heavy chain conjugated to maleimide-functionalized linear hyaluronic acid (Mw 100 kDa)

kon (human VEGF (hVEGF) [3]): 1.17e+08 M⁻¹ s⁻¹
B4: G6.31 LC-Q89T (Fab, V domains shown)
VH: B1 VH with E40A, E58T
VL: B1 VL with A83F, Q89T, A94N
notes: Fab
